Measurements as given in PMC9723941.

Biological target: GFPuv (heat-aggregated)
Test: BLI; aggregated GFPuv as the sensor-bound substrate; Ssa1 and Ydj1 in solution; As(III) at the aggregation step (Fig. S3A)

Sequence of Ydj1 (P25491 whole entry): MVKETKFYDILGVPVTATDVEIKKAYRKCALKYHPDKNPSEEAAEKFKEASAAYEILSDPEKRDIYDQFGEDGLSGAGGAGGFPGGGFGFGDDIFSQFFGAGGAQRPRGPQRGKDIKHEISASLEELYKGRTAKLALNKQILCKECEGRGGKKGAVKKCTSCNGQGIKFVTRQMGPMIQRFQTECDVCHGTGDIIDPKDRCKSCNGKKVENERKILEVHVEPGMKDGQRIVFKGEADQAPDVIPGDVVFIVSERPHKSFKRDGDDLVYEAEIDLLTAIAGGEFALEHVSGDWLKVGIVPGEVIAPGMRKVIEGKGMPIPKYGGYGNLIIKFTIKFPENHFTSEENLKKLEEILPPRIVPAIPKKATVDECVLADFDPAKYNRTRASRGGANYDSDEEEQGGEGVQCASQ
Sequence of Ssa1 (P10591 whole entry): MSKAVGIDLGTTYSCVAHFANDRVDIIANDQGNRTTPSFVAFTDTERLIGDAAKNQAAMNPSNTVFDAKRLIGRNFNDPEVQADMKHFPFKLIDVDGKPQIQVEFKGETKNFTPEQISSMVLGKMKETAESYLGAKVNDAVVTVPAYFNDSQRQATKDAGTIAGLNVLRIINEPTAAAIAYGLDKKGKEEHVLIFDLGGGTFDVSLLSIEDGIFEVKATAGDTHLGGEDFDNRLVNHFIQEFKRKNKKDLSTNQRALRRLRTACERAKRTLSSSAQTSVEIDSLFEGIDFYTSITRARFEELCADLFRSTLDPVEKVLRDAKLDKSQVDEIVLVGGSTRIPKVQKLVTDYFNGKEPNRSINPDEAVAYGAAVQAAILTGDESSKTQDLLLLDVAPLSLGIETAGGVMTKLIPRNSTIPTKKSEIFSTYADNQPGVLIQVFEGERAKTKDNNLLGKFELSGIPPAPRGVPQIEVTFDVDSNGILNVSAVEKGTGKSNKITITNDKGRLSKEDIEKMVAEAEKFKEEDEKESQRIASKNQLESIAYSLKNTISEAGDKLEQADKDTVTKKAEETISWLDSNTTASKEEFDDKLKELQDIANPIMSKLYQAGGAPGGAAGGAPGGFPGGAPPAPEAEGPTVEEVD

| Substance | reduction of binding to aggregates generated in the presence of 1 mM As(III), against aggregates generated without As(III) [%] |
| --- | --- |
| Ssa1 (from UniProt P10591 1-642) (natural protein) | 30 |
| Ydj1 (from UniProt P25491 1-409) (natural protein) | 30 |
